# Paper PMC11610669, “A Spectroscopic Study on the Amyloid‐β Interaction with Clicked Peptide‐Porphyrin Conjugates: a Vision Toward the Detection of Aβ Peptides in Aqueous Solution” (Chembiochem, 2024)
# “Also recorded” adds a separate entry of the source.
# Legend:
# [1] = UV-Vis self-aggregation of the conjugates; format: physicochemical; conditions: UV-Vis 300–650 nm, 5 μM, 10 mM phosphate buffer pH 7.4, room temperature, 0–120 h
# Experimental: We first studied the effects of peptide conjugation on the porphyrin chromophore, by UV‐Vis spectra in the region between 300–650 nm. The spectra were recorded using a solution of 5 μM Porphyrin‐peptide conjugate in 10 mM phosphate buffer pH 7.4. The UV‐Vis profile of the porphyrin precursor MCPTPyP, recorded at the same concentration, is also shown for the sake of comparison (Figure 1).
# Peptide conjugation influences the spectral features of the porphyrin chromophore as evidenced by the red shift in the absorption maximum in the region of the Soret band region. The Q bands are also affected, particularly in the Cu‐Ph‐Pep and Zn‐Ph‐Pep compounds (Figure 1). In this case the presence of a metal ion within the porphyrin's core might contribute to the observed spectral profile of these compounds. […] The fluorescence spectra of the investigated systems were also acquired in view of the interaction of the studied conjugates with cells (see below biological section).[41] The fluorescence spectra were recorded with the photoexcitation at 425±5 nm, in 10 mM phosphate buffer pH 7.4 and 5 μM concentration. The emission spectrum of the porphyrin precursor MCPTPyP ( Ph ) was also obtained for the sake of comparison.
# Spectra were recorded on a Jasco V‐670 Spectrophotometer at room temperature. All measurements were performed in the 300–650 nm wavelength region, in a 10 mM phosphate buffer solution at pH 7.4 using a 1 cm path length quartz cell. The spectra of all the peptide‐porphyrin conjugates, either in the absence or in the presence of equimolar Aβ42, were acquired at 5 μM. In some cases, the same sample solution was used to run the CD spectra. The final concentrations of Aβ42 and peptide conjugates were 5 μM (1 : 1 molar ratio).
# [2] = CD control: β-sheet propensity of the conjugates alone; format: physicochemical; conditions: 10 mM phosphate buffer pH 7.4, room temperature, up to 120 h
# Experimental: The UV‐Vis spectra of porphyrin‐peptide conjugates (5 μM) were recorded in the presence of an equimolar ration of Aβ42 monomers at 0, 24, 48 and 120 h (Figure 2S). […] Therefore, the interaction of the peptide‐porphyrin conjugates with Aβ was further studied using CD spectroscopy. The Aβ42 aggregation process was monitored either in the absence or in the presence of an equimolar amount of the conjugated peptides. A series of CD control experiments were preventively carried out to assess the propensity of the porphyrin‐peptide conjugates to adopt a β‐sheet conformation. The corresponding CD curves are shown in the supplementary material (Figure 3S). […] We then evaluated the ability of the porphyrin‐peptide conjugates to affect the Aβ42’s aggregation process. This was accomplished by running a series of CD experiments on the binary systems in the same experimental conditions as the control CD measurements. A 5 μM Aβ42 sample was used as a positive control of the aggregation process (Figure 3, panel a). In this case, the curve profiles indicate that at 0 h, Aβ42 is predominantly in the random coil conformation, as evidenced by the negative ellipticity around 200 nm. […] The typical dichroic profile characterized by a negative ellipticity at λ=222 nm and a positive band at λ=200 is indicative of this event (Figure 3, panel a).
# Spectra were recorded on a J‐810 spectrometer (Jasco, Japan) under a constant flow of N2 at room temperature. The CD measurements were performed in the wavelength regions (190–260 nm, 195–350 nm and 350–500 nm) using a 1 cm path length quartz cell. All aggregation kinetics were monitored up to 120 hours. The CD spectra were recorded for Aβ42 (5 μM and 20 μM) monomer in the absence or in the presence of porphyrin‐peptide conjugates (5 μM and 20 μM for the 1 : 1 molar ratios). Monomerized samples of Aβ42 (5 μM and 20 μM) were solubilized in 50 μL of NaOH 20 mM (2,5 %) and after were diluted with 1950 μL of 10 mM phosphate buffer at pH 7.4 pure or containing the solubilized conjugates.
# [3] = molecular target: Aβ42 (Homo sapiens, UniProt P05067); assay: Sensing: induced CD in porphyrin Soret region with Aβ42; format: binding; conditions: Aβ42 20 μM, 1:1, 350–500 nm, 10 mM phosphate buffer pH 7.4
# Experimental: The Grating‐Coupled Interferometry (GCI) is a widely used analytical technique for characterizing intermolecular interactions. It allows quantitative measurements of both the affinity and the kinetics of the binding events. This high sensitivity label‐free method was exploited to measure the interactions of Aβ42 with Cu‐Ph‐Pep , Ph‐Pep , and Zn‐Ph‐Pep (Figure 5S). Control experiments with pristine MCPTPyP and the peptide GPGKLVFF ( Pep ) were carried out for comparison. The calculated association and dissociation kinetic constants (kon and koff, respectively) and the thermodynamic binding constant (KD), are summarized in Table 1. The obtained values indicate that all the conjugates show good affinities with Aβ42. It is also clear from Table 1 that the peptide moiety is fundamental for the molecular recognition of the Aβ42 peptide.[48] […] For the sake of comparison, the CD spectra of the porphyrin‐peptide conjugates at 20 μM were also recorded in the same experimental conditions, both in the far‐UV and Visible regions (Figure 6S).
# Spectra were recorded on a J‐810 spectrometer (Jasco, Japan) under a constant flow of N2 at room temperature. […] All aggregation kinetics were monitored up to 120 hours. The CD spectra were recorded for Aβ42 (5 μM and 20 μM) monomer in the absence or in the presence of porphyrin‐peptide conjugates (5 μM and 20 μM for the 1 : 1 molar ratios). […]
# Sequence of Aβ42 (P05067 672-713 limits assumed): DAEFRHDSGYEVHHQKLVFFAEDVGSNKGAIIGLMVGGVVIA
smiles,measurement,setting,value
COC(=O)[C@H](Cc1cn(CCCC[C@H](NC(=O)CNC(C)=O)C(=O)N2CCC[C@H]2C(=O)NCC(=O)N[C@@H](CCCCN)C(=O)N[C@@H](CC(C)C)C(=O)N[C@H](C(=O)N[C@@H](Cc2ccccc2)C(=O)N[C@@H](Cc2ccccc2)C(N)=O)C(C)C)nn1)NC(=O)c1ccc(-c2c3nc(c(-c4cc[n+](C)cc4)c4ccc([nH]4)c(-c4cc[n+](C)cc4)c4nc(c(-c5cc[n+](C)cc5)c5ccc2[nH]5)C=C4)C=C3)cc1 [Zn‐Ph‐Pep],self-aggregation,[1],slight propensity to self‐aggregation
same,propensity to adopt β-sheet conformation (conjugate alone),[2],being faster in this process
same,induced CD signal in Soret region with Aβ42,[3],induced dichroic signal; also recorded: generates a distinct CD signal
